Results: patent US20220348663A1 (Y BIOLOGICS, published 2022)
Substitutions are numbered along the chain they refer to. Values belong to the binder of their own block, whether it stands above or below them.

Assays:
[1] = biological target: T1, rat B7-H3 (#80380-R08H, Sino) (rat, UniProt Q7TPB4 29-244); assay: ELISA on coated Rat B7H3, OD450nm
T1 construct: Bought protein; also called rat B7-H3 antigen
T1 sequence (looked up): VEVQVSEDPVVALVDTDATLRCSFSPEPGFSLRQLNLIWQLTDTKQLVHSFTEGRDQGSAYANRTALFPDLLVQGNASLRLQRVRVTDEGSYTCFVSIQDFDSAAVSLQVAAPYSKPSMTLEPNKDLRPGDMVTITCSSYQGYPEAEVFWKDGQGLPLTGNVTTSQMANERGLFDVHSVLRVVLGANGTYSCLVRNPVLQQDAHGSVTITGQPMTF

[2] = biological target: T2, Mouse B7-H3 (#50973-M08H, Sino) (mouse, UniProt Q8VE98 29-244); assay: ELISA on coated Mouse B7H3, OD450nm
T2 construct: Bought protein; also called mouse B7-H3 antigen
T2 sequence (looked up): T1 sequence (looked up) with R33A, A62S, D131N, L156V, M214L

[3] = biological target: T3, human B7-H3 antigen (Octet) (human, UniProt Q5ZPR3 29-466, limits assumed); assay: BLI (Octet QK), antibody captured on AHC biosensor, B7-H3 antigen 30-0.24 nM, 1:1 global fit
T3 construct: Soluble antigen in the BLI assay
T3 sequence: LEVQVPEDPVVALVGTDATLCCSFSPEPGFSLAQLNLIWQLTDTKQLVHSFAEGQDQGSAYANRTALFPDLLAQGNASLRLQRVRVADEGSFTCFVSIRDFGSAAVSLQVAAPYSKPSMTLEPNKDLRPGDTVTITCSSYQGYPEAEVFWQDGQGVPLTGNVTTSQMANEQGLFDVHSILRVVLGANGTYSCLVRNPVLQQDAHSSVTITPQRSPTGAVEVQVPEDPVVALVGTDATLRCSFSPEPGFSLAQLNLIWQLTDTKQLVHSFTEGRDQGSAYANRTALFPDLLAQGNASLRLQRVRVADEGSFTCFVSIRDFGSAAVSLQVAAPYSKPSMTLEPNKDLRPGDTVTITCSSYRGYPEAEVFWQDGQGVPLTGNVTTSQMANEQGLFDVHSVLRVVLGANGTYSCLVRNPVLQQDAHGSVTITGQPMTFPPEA

binding result [1]: binds
binding result [2]: binds
B1: CD276-039C05 (antibody, V domains shown)
VH: QVQLVESGAEVKKPGSSVKVSCKASGGTFSSYAISWVRQAPGQGLEWMGRIIPILGIANYAQKFQGRVTITADKSTSTAYMELSSLRSEDTAVYYCANGGDSSSWYTFDYWGQGTLITVSS
VL: DIQMTQSPSTLSASVGDKLTLTCRASQSISRWLAWYQQKPGKAPKLLIYKASYLQTGVPSRFSGSGTGTEFTLTISSLQPDDFATYYCQQYNTFPLTFAGGTKVEIK
notes: Converted from scFv to IgG form; Parent of the _LS_ light-chain variants

Kd [3]: 60 pM
B2: CD276-040F10 (antibody, V domains shown)
VH: QVQLVESGAEVKKPGASVKLSCKASGYTFSSYWMHWVRQAPGQRLEWMGEINPGNGHTNYNEKFKSRVTITVDKSASTAYMELSSLRSEDTAVYYCVADPRRPKVPTALFVYWGQGTLVTVSS
VL: DIQMTQSPSSVSASVGDRVTISCRASQGIGTWLAWYQQKPGKAPRLLIYAASSLDSGVPSRFSASGSGTDFTLTISSLQPEDFATYYCQQAINFPITFGQGTRLEIK
notes: Converted from scFv to IgG form
